Tests used:
[1] = target: LILRB1 and LILRB2 on human primary myeloid cells (monocytes, M0 and M2c macrophages, mDCs, neutrophils); assay: flow cytometry, M0 macrophages, AF647-labelled antibody, mean of two subjects
[2] = target: LILRB1 and LILRB2 on human primary myeloid cells (monocytes, M0 and M2c macrophages, mDCs, neutrophils); assay: flow cytometry, M2c macrophages, AF647-labelled antibody, mean of two subjects
[3] = target: LILRB1 and LILRB2 on human primary myeloid cells (monocytes, M0 and M2c macrophages, mDCs, neutrophils); assay: flow cytometry, monocytes, AF647-labelled antibody, mean of two subjects

B1: Comp 1 (anti-LILRB1 antibody) (antibody, human IgG1, kappa, V domains shown)
VH: QVQLKESGPGLVAPSQSLSITCTVSGFSLTNYGVSWVRQPPGKGLEWLGIIWGDGSTNYHSALISRLSISKDNSKSQVFLKLNSLQADDTATYYCAKPNWDTYAMDFWGQGTSVTVSS
VL: DIQMTQTTSSLSASLGDRVTISCRASQDISNFLNWYQQKPDGTVKLLIYCTSKLHSGVPSRFSGSGSETDYSLTISNLEQEDIATYFCQQGNTLPPTFGGGTKLEIIR
EC50 [1]: 0.0937 µg/mL | EC50 [2]: 0.0862 µg/mL | EC50 [3]: 0.823 µg/mL

From patent US20250002577A1
